Columns and labels:
4H3632-bH = biological target: T1, 4H3632-bH; assay: two-hybrid library CCNG1;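 also: natural log of median RNA to DNA barcode read ratio; higher means stronger binding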
T1 chain: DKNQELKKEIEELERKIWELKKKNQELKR

4H342-bH = biological target: T2, 4H342-bH; assay: two-hybrid library CCNG1;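 also: natural log of median RNA to DNA barcode read ratio; higher means stronger binding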
T2 chain: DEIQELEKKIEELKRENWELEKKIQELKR

4H3070-bH = biological target: T3, 4H3070-bH; assay: two-hybrid library CCNG1; details: mean of both orientations;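 also: natural log of median RNA to DNA barcode read ratio; higher means stronger binding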
T3 chain: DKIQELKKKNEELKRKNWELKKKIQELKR

4H496-bH = biological target: T4, 4H496-bH; assay: two-hybrid library CCNG1;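 also: natural log of median RNA to DNA barcode read ratio; higher means stronger binding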
T4 chain: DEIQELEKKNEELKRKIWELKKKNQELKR

4H249-AA = biological target: T5, 4H249-AA; assay: two-hybrid library CCmax; details: mean of both orientations;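 also: natural log of median RNA to DNA barcode read ratio; higher means stronger binding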
T5 chain: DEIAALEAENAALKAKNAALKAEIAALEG

4H2774-AA = biological target: T6, 4H2774-AA; assay: two-hybrid library CCmax; details: mean of both orientations;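 also: natural log of median RNA to DNA barcode read ratio; higher means stronger binding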
T6 chain: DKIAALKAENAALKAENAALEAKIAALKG

P2-AA-1HGe-A = biological target: T7, P2-AA-1HGe-A; assay: two-hybrid library CCmax
T7 chain: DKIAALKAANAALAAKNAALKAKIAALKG

4H2903-AA = biological target: T8, 4H2903-AA; assay: two-hybrid library CCmax; details: mean of both orientations
T8 chain: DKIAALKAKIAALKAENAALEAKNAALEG

4H3094-AA = biological target: T9, 4H3094-AA; assay: two-hybrid library CCmax; details: mean of both orientations
T9 chain: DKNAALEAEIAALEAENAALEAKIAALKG

4H2961-AA = biological target: T10, 4H2961-AA; assay: two-hybrid library CCmax; details: mean of both orientations
T10 chain: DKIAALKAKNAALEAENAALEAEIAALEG

4H3414-AA = biological target: T11, 4H3414-AA; assay: two-hybrid library CCmax; details: mean of both orientations
T11 chain: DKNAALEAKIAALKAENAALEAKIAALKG

4H1384-AA = biological target: T12, 4H1384-AA; assay: two-hybrid library CCmax; details: mean of both orientations
T12 chain: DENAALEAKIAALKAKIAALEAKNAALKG

4H2580-AA = biological target: T13, 4H2580-AA; assay: two-hybrid library CCmax; details: mean of both orientations
T13 chain: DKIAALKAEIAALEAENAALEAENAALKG

4H1454-AA = biological target: T14, 4H1454-AA; assay: two-hybrid library CCmax; details: mean of both orientations
T14 chain: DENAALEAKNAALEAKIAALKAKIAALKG

4H3939-AA = biological target: T15, 4H3939-AA; assay: two-hybrid library CCmax; details: mean of both orientations
T15 chain: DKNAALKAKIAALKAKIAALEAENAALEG

4H1593-AA = biological target: T16, 4H1593-AA; assay: two-hybrid library CCmax; details: mean of both orientations
T16 chain: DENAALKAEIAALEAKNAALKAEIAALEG

4H1913-AA = biological target: T17, 4H1913-AA; assay: two-hybrid library CCmax; details: mean of both orientations
T17 chain: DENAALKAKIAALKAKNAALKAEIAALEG

4H1878-AA = biological target: T18, 4H1878-AA; assay: two-hybrid library CCmax; details: mean of both orientations
T18 chain: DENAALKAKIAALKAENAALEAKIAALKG

4H483-AA = biological target: T19, 4H483-AA; assay: two-hybrid library CCmax; details: mean of both orientations
T19 chain: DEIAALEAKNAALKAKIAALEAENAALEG

4H432-AA = biological target: T20, 4H432-AA; assay: two-hybrid library CCmax; details: mean of both orientations
T20 chain: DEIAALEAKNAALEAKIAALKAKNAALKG

4H235-AA = biological target: T21, 4H235-AA; assay: two-hybrid library CCmax; details: mean of both orientations
T21 chain: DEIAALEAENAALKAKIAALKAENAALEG

4H2760-AA = biological target: T22, 4H2760-AA; assay: two-hybrid library CCmax; details: mean of both orientations
T22 chain: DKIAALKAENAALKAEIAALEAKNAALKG

4H63-AA = biological target: T23, 4H63-AA; assay: two-hybrid library CCmax; details: mean of both orientations
T23 chain: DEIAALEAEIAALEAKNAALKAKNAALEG

4H2728-AA = biological target: T24, 4H2728-AA; assay: two-hybrid library CCmax; details: mean of both orientations
T24 chain: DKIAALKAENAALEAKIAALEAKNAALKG

4H1558-AA = biological target: T25, 4H1558-AA; assay: two-hybrid library CCmax; details: mean of both orientations
T25 chain: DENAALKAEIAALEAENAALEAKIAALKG

4H2699-AA = biological target: T26, 4H2699-AA; assay: two-hybrid library CCmax; details: mean of both orientations
T26 chain: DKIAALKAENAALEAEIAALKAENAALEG

4H3782-AA = biological target: T27, 4H3782-AA; assay: two-hybrid library CCmax; details: mean of both orientations
T27 chain: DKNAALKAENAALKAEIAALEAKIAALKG

4H464-AA = biological target: T28, 4H464-AA; assay: two-hybrid library CCmax; details: mean of both orientations
T28 chain: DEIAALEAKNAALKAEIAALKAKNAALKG

4H2621-AA = biological target: T29, 4H2621-AA; assay: two-hybrid library CCmax; details: mean of both orientations
T29 chain: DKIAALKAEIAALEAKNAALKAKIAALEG

4H3777-AA = biological target: T30, 4H3777-AA; assay: two-hybrid library CCmax; details: mean of both orientations
T30 chain: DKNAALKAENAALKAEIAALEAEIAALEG

4H3449-AA = biological target: T31, 4H3449-AA; assay: two-hybrid library CCmax; details: mean of both orientations
T31 chain: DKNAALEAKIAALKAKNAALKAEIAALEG

4H324-AA = biological target: T32, 4H324-AA; assay: two-hybrid library CCmax; details: mean of both orientations
T32 chain: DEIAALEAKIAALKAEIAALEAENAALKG

4H380-AA = biological target: T33, 4H380-AA; assay: two-hybrid library CCmax; details: mean of both orientations
T33 chain: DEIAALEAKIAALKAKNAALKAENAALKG

4H1449-AA = biological target: T34, 4H1449-AA; assay: two-hybrid library CCmax; details: mean of both orientations
T34 chain: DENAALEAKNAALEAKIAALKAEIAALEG

4H3969-AA = biological target: T35, 4H3969-AA; assay: two-hybrid library CCmax; details: mean of both orientations
T35 chain: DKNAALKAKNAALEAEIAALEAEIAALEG

4H1360-AA = biological target: T36, 4H1360-AA; assay: two-hybrid library CCmax; details: mean of both orientations
T36 chain: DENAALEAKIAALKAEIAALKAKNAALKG

4H3629-AA = biological target: T37, 4H3629-AA; assay: two-hybrid library CCmax; details: mean of both orientations
T37 chain: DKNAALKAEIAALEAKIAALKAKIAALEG

4H2947-AA = biological target: T38, 4H2947-AA; assay: two-hybrid library CCmax; details: mean of both orientations
T38 chain: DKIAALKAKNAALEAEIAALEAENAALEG

4H341-AA = biological target: T39, 4H341-AA; assay: two-hybrid library CCmax; details: mean of both orientations
T39 chain: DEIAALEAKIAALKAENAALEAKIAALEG

4H3129-AA = biological target: T40, 4H3129-AA; assay: two-hybrid library CCmax; details: mean of both orientations
T40 chain: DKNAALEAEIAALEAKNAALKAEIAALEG

4H3619-AA = biological target: T41, 4H3619-AA; assay: two-hybrid library CCmax; details: mean of both orientations
T41 chain: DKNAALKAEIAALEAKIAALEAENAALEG

4H3049-AA = biological target: T42, 4H3049-AA; assay: two-hybrid library CCmax; details: mean of both orientations
T42 chain: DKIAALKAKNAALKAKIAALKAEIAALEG

4H3915-AA = biological target: T43, 4H3915-AA; assay: two-hybrid library CCmax; details: mean of both orientations
T43 chain: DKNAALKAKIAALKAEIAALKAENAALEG

4H2604-AA = biological target: T44, 4H2604-AA; assay: two-hybrid library CCmax; details: mean of both orientations
T44 chain: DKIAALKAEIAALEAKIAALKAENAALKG

4H3595-AA = biological target: T45, 4H3595-AA; assay: two-hybrid library CCmax; details: mean of both orientations
T45 chain: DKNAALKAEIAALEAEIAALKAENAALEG

4H446-AA = biological target: T46, 4H446-AA; assay: two-hybrid library CCmax; details: mean of both orientations
T46 chain: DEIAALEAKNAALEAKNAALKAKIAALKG

4H3974-AA = biological target: T47, 4H3974-AA; assay: two-hybrid library CCmax; details: mean of both orientations
T47 chain: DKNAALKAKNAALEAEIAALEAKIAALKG

P8mSN = biological target: T48, P8mSN; assay: two-hybrid library CCNG1
T48 chain: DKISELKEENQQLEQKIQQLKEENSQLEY

P4mSN = biological target: T49, P4mSN; assay: two-hybrid library CCNG1
T49 chain: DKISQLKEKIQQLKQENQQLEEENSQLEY

P9mSN = biological target: T50, P9mSN; assay: two-hybrid library CCNG1
T50 chain: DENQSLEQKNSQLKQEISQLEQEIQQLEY

P3mSN = biological target: T51, P3mSN; assay: two-hybrid library CCNG1
T51 chain: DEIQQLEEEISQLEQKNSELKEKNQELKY

P5mSN = biological target: T52, P5mSN; assay: two-hybrid library CCNG1
T52 chain: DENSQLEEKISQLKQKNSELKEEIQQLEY

P1mSN = biological target: T53, P1mSN; assay: two-hybrid library CCNG1
T53 chain: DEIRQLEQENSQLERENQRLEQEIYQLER

P7mSN = biological target: T54, P7mSN; assay: two-hybrid library CCNG1
T54 chain: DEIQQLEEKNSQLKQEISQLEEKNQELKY

P2mSN = biological target: T55, P2mSN; assay: two-hybrid library CCNG1
T55 chain: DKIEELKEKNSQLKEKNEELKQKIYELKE

P6mSN = biological target: T56, P6mSN; assay: two-hybrid library CCNG1
T56 chain: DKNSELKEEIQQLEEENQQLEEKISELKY

B1: 4H3070-bH (peptide)
chain: DKIQELKKKNEELKRKNWELKKKIQELKR
4H3632-bH
  interaction score: -0.214
4H342-bH
  interaction score: 1.49
4H3070-bH
  interaction score: 0.665
4H496-bH
  interaction score: -0.307

B2: 4H1349-AA (peptide)
chain: DENAALEAKIAALKAEIAALEAKIAALEG
4H249-AA
  interaction score: -2.14
4H2774-AA
  interaction score: -2.01
P2-AA-1HGe-A
  interaction score: -1.79
4H2903-AA
  interaction score: -0.278
4H3094-AA
  interaction score: -0.703
4H2961-AA
  interaction score: -2.4
4H3414-AA
  interaction score: -0.92
4H1384-AA
  interaction score: 1.03
4H2580-AA
  interaction score: -0.799
4H1454-AA
  interaction score: -0.224
4H3939-AA
  interaction score: 0.491
4H1593-AA
  interaction score: 0.813
4H1913-AA
  interaction score: -0.124
4H1878-AA
  interaction score: -0.906
4H483-AA
  interaction score: -1.07
4H432-AA
  interaction score: -1.21
4H235-AA
  interaction score: -2.02
4H2760-AA
  interaction score: -0.562
4H63-AA
  interaction score: -0.724
4H2728-AA
  interaction score: -1.04
4H1558-AA
  interaction score: -0.218
4H2699-AA
  interaction score: -1.39
4H3782-AA
  interaction score: 0.414
4H464-AA
  interaction score: -0.554
4H2621-AA
  interaction score: 2.18
4H3777-AA
  interaction score: -0.808
4H3449-AA
  interaction score: -0.531
4H324-AA
  interaction score: 1.84
4H380-AA
  interaction score: -0.754
4H1449-AA
  interaction score: -0.154
4H3969-AA
  interaction score: -1.13
4H1360-AA
  interaction score: 0.392
4H3629-AA
  interaction score: 2.08
4H2947-AA
  interaction score: -1.49
4H341-AA
  interaction score: -0.142
4H3129-AA
  interaction score: 0.123
4H3619-AA
  interaction score: 0.504
4H3049-AA
  interaction score: -0.0176
4H3915-AA
  interaction score: 0.312
4H2604-AA
  interaction score: 1.42
4H3595-AA
  interaction score: 1.05
4H446-AA
  interaction score: -1.37
4H3974-AA
  interaction score: 0.171

B3: P1mSN (peptide)
chain: DEIRQLEQENSQLERENQRLEQEIYQLER
P8mSN
  interaction score: -1.17
P4mSN
  interaction score: -1.09
P9mSN
  interaction score: -2.07
P3mSN
  interaction score: -1.95
P5mSN
  interaction score: -1.04
P1mSN
  interaction score: -1.23
P7mSN
  interaction score: -1.01
P2mSN
  interaction score: 1.73
P6mSN
  interaction score: -0.582
